According to a protein production outcome set (Wang et al. 2014):

Experiment: label from the status in PepcDB records
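Also: failed if final PepcDB status was selected cloned or expressed and not failed if soluble or beyond.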

Sequence | protein production
MVKTAVLMATYNGEIFISEQLDSIRQQTLKPDYVLLRDDCSTDETVNVVNNYIAKHELEGWKIVKNDKNLGWRLNFRQLLIDVLAYEVDYVFFSDQDDIWYLDKNERQFAIMSDKPQIEVLSADVDIKTMSTEASVPHFLTFSSSDRISQYPKVYDYQTFRPGWTIAMKRDFAQAIADNWTFGANISHDNLIETTASIIGNGYNLNESVGVHIRYGGNASGNSKFVLNWKSPKTQHITGLKTFVDFYETMQKVVNKYQNDVALNQRLAFEKERLEASKLSLIHNSAFVIKNWRLYNSNSGRMRDLLFAFKKLEHHHHHH | not failed
MKFEKRQVYYVVITFAICYAIQAYWGAVSNILTTLHKAIFPFLMGAGIAYIINIVMSVYERLYIKLFKGSRLLMAIKRSVSMILSYATFIGLIVWLFSIVIPDLISSLSSLLVIDTGALAKLVNNLNENKQISEVLNYMGTDKDLVSTLSGYSQQILKQVLSVLTNLLTSVSSIAATLLNVFVSFIFSIYVLANKEQLGRQFNLLIDTYLGSTGKTFHYVRHILHQRFHGFFVSQTLEAMILGSLTVIGMLIFQFPYALTVGVLVAFTALIPVVGAYIGVTIGFILIATESLTEAFLFVLFLILLQQFEGNVIYPKVVGGSIGLPSMWVLMAITIGGALWGILGMLLAVPVAATIYQIVKDHIIKRQTLRNCARTYR | failed
MEGSQQTITSKQLVRMLKDASRGSKGKGSGEMKFCFLIGAGASISSGIPSGAKLAWDWLQQIKEDCDGEDFEDWKIEIKMPDQHIEERVGEFYPEIYEKRFGHAPETGYDYIRGLMEGREPSLGYLILANIMVREKHNVVITTNFDNLLEDAIRTYTKEKPFIAGHEALADYVPKRSDRPIILKLHRDLFLQPFSDQLNTDILQAAWESILGKFLSDYHLIVLGYGGNDGSLMNYLLKLKNRKPIYWCVRNTDKATSKSLWNTLSPKAKRLLKNDGYLVPIDDFDRFMYDCYAALGYKFLEGIEKIEKPKSIHEILKPNYARIESIQTQLRQLSQTEEELSKESFQSIKSFLPDSWMWILKANQEKDIDKKDKIYREGIAKYPQDANLLGDYADFLCDICHD | not failed
MKLSSLLNSENSEKNHLQIQQSGQRRIDRMAQSGVGKSSLWSLAEVGWTAGPVTFLAAQGGYYLGFGTWLPNENLIFFVGYTVLMGLIAVLVKFIYKATKGQELDDAKEQLLLVIGSLPDFILSVRDLTLSRMEPESRRYESARILLQKSDLGPQWLTLAVNSIIDSPVIAQAVANIEIYWRAGMYSRIHDINQELSTEISAALASLEPDRPRLARLLEQRLQGKKNTLRSGVEREPFFIERIFSAIEEDNEDIMGLSDVEEVLTLAFELLSGRRIPMLVVNCVGSSQLTIATKKLEKERSKYRIARARGYSQLLALANFLSDSNLLDYSTVAERLPSSDLLQICLETIDRLCQNICDDIGCVQKRENVDMRALKLNHSVLIKALELYQQAYRSSAMVLNEHADFLKDINSWQRINLKYADANTKVSVTGKQGLHIIERQIQLTDADKITVVKKIAHHFDSQSILSKGLRNRTQQSNWQVSNQHVRAAKQLAIDLALALNPCVFISLPEVQGAIYSSNAVDLGSFEPGLSTTTKVGWGESVAKEVKKDMVKASEQIAQAIHRYYGICLGDKELDFMHQTYGMNKEHVIDYYLENEQGEQSSNVFEPRSPLMIPEVKFAWRKTLTLYRQHI | failed
MALDRIEAMRAFCRIVELGSFTRAADSLGVASTTLSGQIQVLERLLDIRLLHRSTRKVHPTNEGLAYYQRARKVIEDIDDLEASVSISRAVVKGRVAVEMPTPVGIHLVIPALHGFTERYPHIHLDIGCSERVVGLMQEGIDCAIRGGDIADQDLIARRVGQMRFCLCAAPAYLDAHPAITHPAQLARHRHLGFRFPGTGKRFVATLRKQRDSHPLDHPPHVYFNNGTAVTAGAAAGLGIAALPRAEVRHLLEAGALREILPDWTLTSMPMSVVYPQTHQLSARVQVFVQWVAELFEGDGLWKDA | failed
MLAALFSIAAVFGFHAEDEPYIVTLPWYELFSSAAKAVAGTIHNPFGLFGARVSVFFIRVLLGYPSVMPLFGFLVLGWHLFRAKPLGPGLFFLVYTLLMALDLSAMFGLSMLPLADLMSGATGRMMASFLSTVIGYPGAWALTAIIAAVLTFYMGRDFIVDTIAGVSGFFGKLLATVQAIRAERHRKRREKEEMRVRKKAERMAAVLEKEQRKRDKKAQRARKAGDASKQKAAPFENSPETPAPVMDVEPAPPLLNPAVSEPVVIPAEVEEIRTPEPAPVRPEEGPEMIIKPGVQEAEADLDERALKVRTHDHVKYRFPSIDLLRRPKDEDESYDERHLAETKDRLLEKLRIYKIDVIRIATTVGPRVALFELELAPEVKISRIKSLENDLAMAMASSSGGIRIIAPIPGKNAIGVEIPISKPRPVVMRSVLQVEKFKNNSMALPIVLGKSISNEVIVDDLAAMPHLLIAGATGAGKSVAINVLLTSLLYSKKPDEVKFVLIDPKRVELKPYKLLKDHFLPKIPGMEEQIIVTDPQKAVSALRSVVREMEHRYELLEQCGVRNIGEYNRKMKDEAMFYLVVVVDELADLMITAGREVEEPITRLAQMARAVGIHLIVATQRPSVDIITGIIKANFPSRIAFQVASKVDSRTILDVSGAEQLLGSGDMLFQSAKMSKPQRIQCPYISLSEVDAITEFIGQQPPLRAECMLPEPPSSSGNGSSSGFDQDRGRRDSMFEEAARLVVMHQQASVSLLQRRLRLGFSRAGRVMDQLEQSGIVSAGDGSKPREVLVKNEDSLELLLRNLD | failed
MGHHHHHHHHHHSSGHIDDDDKHMEVSVLIPAAGNGLRLGRGPKAFLQVGGRTLLEWTLAAFRDAAEVLVALPPGAEPPKGLGAVFLEGGATRQASVARLLEAASLPLVLVHDVARPFVSRGLVARVLEAAQRSGAAVPVLPVPDTLMAPEGEAYGRVVPREAFRLVQTPQGFFTALLREAHAYARRKGLEASDDAQLVQALGYPVALVEGEATAFKITHPQDLVLAEALARVWSA | not failed
MTAEILVFSLIIPLVVAFILPALKPKAATWLSAISFLIPMFVTLGFLLTTKETIEVPIMSLPAPVGEFYLLADPISNAFGFTICLVSAMVAFYSLPYMKHRFEEMLHDGEIRSIEWEFRKYWFLYNLYAVAMLWLVYAGNFILLYIFLEISLLASFLLIYMYGYGNRQWVAVLYFVWTHIAGVLALLGILIIGFENSTMAFNAVKAVGFTAWLLIFLGMLVKLPGLGPHIWLPWAHAEAPTPVSALLSPLTVGLAGYVLLRVYMIDSSFIDQYRDIIIAYAIVSSIYAGFSVFKQKDYKRLLAYSTVSQMGYVLIALCLGSYGLLGVVIQYISHAFGKSILFMTAGAIIASFHGLRDINRMSGMHEYVPTIANAALLGFMTLSGILTIGMFGEFYILAGLTTIYGFNLAVILAVVVVFIISGLYSFYTMKVIYYGTPAGYEKPKVSRLLDVPLYVVAFFSVAFIFPPLSTALLSGLKVVLGIGGVMP | failed
MNLDHLYPFGFRSTLFDRLTPEYEDLKGLSIHQLRESVARDLEDLLNSRVAKMDDVLVNYPLARQSILQFGIIDFVGLSTANPMDREKICQSIEQSIAAHEPRLKQVKVEMLLDGHNMGALCLSIQAYLNIHPLYEPVVFDALLKPTTQQYVISAQT | failed
MTALTPLQRLWLTETVRLREEHAGPLEDQEANRLARNQGGDLATRIQNRALWLAQRDGLHSALLHWHQGARMALLALSVLAVISGAGLAFSALGSTQQPVNVFWALGSLLGINLILLLSWLAGLLFAGEHGASLGRLWLWLSEKFSRDAKAAQLPPALLLLLQRRKLNRWALGSLINGLWCLALFSAVVMLLLLLTTHRYSFVWESTLLGSDAFVAITNTLSALPRGLGFGAPSVASIQASTRDVYNTELIRQSWAIWLVVLVTIYGVLPRLLLMLFCRWRWKHGQARLQLDLNLPGYAQLRERLMPSSERLGVNDAAPEQLHRVEGGVSAQDSSGALLVAIELDNQRPWPPQLPESIKDAGILDSRESRSRLLEQMSRFPPARLVIACDPRRSPDRGSLGLIAELARNASATRVWLLQAPPGQALDADRLGDWHSALHKLQLPFADCAPLDWLENGHD | failed
MKYQNFIMRILCLLLILAAVVGYNSMQKKDTQAQESQEITALTKRVEKLEEQNTEILSALEEAAKNQEAAIAQAQRDAKDKDDAAKEDAEGADAADTEESDDSENVYKDGTYTGSAQGFGGAITVQVTLANDEITDIQVTSAPGEDSAYLSQGEGVISSIISAQSTDVDTVSGATFSSTGIINAVVDALGKAEN | failed
DVAYELPAHTTRAQLSIDLVNNGDVEQQEKINSMRFIVFGSTPGGVRLDVNEHILLSTPETATDIDAQLLEVTSSNDILVVVIANEPQSLTSQLDGIANLLTLQEMIYDISSILNSDGQIISATGMPMTGVIRDISIAPDETKTVQMVIERAVARVDVFIEAIDGGAVTGYTAGSTSVTLHNFSHDSYFVMGNVGNGTRDNADSSKNYGKVKEDVSESNLLTHSWTAATTETWAYSSAPGAENRKLLCSFYTAERLFKSDYSDRLSISMANVLKGPSDVTGITGKVIESVTKVDGTGSPTAQPFTEIRRNNVYQVTARVGKIGIQILTISVEDWGERQDIDLDMDL | not failed
RYGGDSTMIEMAFNKILIYAFGQFSAYSVWFDNNYLNIVDTIPGYGVFTGVVSKIFDFDRVSGFYDSFTYISNEDYTNVFTLSR | failed
RNGGTIGGADIIAKLLEDKLGLQLNQALLGIDLFVMIVSLTYISLPQMMYALIASFMYGQIVRLVQQGGYSARGIFIVSEQAEKIARFIMDELGRGVTYLTGEGAYSGRRKKVIYVALGRRDIRELKAFLTQVDPNAFITYFDVNEVNSPEFLTIKSKYHKKRK | failed
MKKGTVLNSEISSVISRLGHTDTLVVCDAGLPIPNSTARIDMALTQGVPSFMQVVDVVTREMQVEAAILATEIKQQNPQLHETLLTHLEQLQQHQGNTIKISYTTHEQFKKLTADSQAVIRSGECSPYANVILCAGVTF | not failed
HRMDAVEVTLFEKETRVAAHQTGHNSGVVHAGLYYLPGSLKARLCRRGVTLLQQYAENKGVAYEECGKVVVAHDSSEVARMDAIFDRAVANGVPGIRKVAGEEIPEIEPHARGVAAVHSPHTAIIDYVAVAEALAADITAAGGRVLLGREVVGLDSRTAETVVTTGQGSEVFDLVVTCAGLQSDRVALMSGEPRSPRVVPFFGDYFLLEPERSSLVKGLIYPVPDPRYPFLGVHLTKRIDGRIMLGPNAFLSF | failed
MEVIREQEFVNQYHYDARNLEWEEENGTPKTNFEVTFQLANRDEAAKVTSIVAVLQFVIVRDEFVISGVISQMAHIQGRLINEPSEFSQDEVENLAAPLLEIVKRLTYEVTEIALDRPGVTLEFNS | not failed
MVVTPLIVLLVSVLGYANLNSTELGKLKLNRLVPSRLAITLFISGTVILFGAVFATFLLLLLWGLITLVVSGSLSSAWVAMQTLTGSPGGVEPDKSSVLLLFTIGLVISFLSVTKFQSKADANWKQNNSKFLIHKLVDDELELFLLRALEMDDFIPHNGDESPDKRMLVRVVLSNRKVYIGNLIRCDITRGVCSNIVLVPMHSGYQDESTLELQLTEHYEKHYSAELSSDATELQIKDFLNQYSLTIPVHHLVTASLFDLTAYQKFLTEKLNSM | failed
MRAFDAYKILDEQEAGSLIDLIAPCMDDYLYIIDLKNDTLRISQSAVERFMLPDKFMNDATKHLRTLVYEKDRKLLENHKRKIYDGKEKRYNVLCRLMNSKNLPVWINCRGEVINDEAGKPRYIIGCMNETGTRQRADNISGLLGEKEMASYLYSQPKEKLSGYFIQIGIDDFGIINNVQGQIYGNYILKRVAECIAECLSSGQRIYHLVTDKYMLVDMLSKSQDDVVQLFKRIGEKIDEFIVDENYKSIFSISAGVTDISTLAEDAIECRKKSDFSLKCAKKRGGGSLYFFEEEDYKVSLRKNTILSALRSATVNDFEGFEVYYQPILDSADRIIGAEALLRFFMHSDEGDEMISPVEFIPLLEKSRLIIPVGEFVLNEAAKMCREMQQYIADFRVNINVSYIQIMRGSMANKILTAIRANNLRPESICIEMTESGFMDMTPCFCSFRKKLDENNIQFIIDDFGTGYSNLRYISEMNPDYVKIDKDFTARAMSSEKDYELFRKIIEMVHSINIKICIEGIEKEEWACAMKEIHVDYMQGYLYGRPCEKGVFLNNYGI | failed
